Assay results published in patent US20240376170A1 (BRIGHT PEAK THERAPEUTICS, published 2024).
Each block holds one binder with its values, some of them ahead of it. Bridges are numbered along the chain shown (N, C = ends). Primed or numbered codes have the meaning given here. [ ]: non-standard residue; d: D form. Ygp(4) = Tyr with amino-capped PEG8 (O-(8x polyethylene glycol-amino)-tyrosine); Yn3(4) = Tyr with azide-capped PEG9 (O-(9x polyethylene glycol-azido)-tyrosine); Ygp = O-(8x polyethylene glycol-amino)-tyrosine (Tyr, amino-capped PEG8); Yn3 = O-(9x polyethylene glycol-azido)-tyrosine (Tyr, azide-capped PEG9); hSer = N[C@@H](CCO)C(=O)O; Nle = CCCC[C@H](N)C(=O)O

What was measured:
[1] = biological target: T1, recombinant human IL-2 receptor beta containing a His-tag and Avi-tag (human, UniProt P14784 27-239); experiment: BLI (Octet R8), receptor on SAX2 sensor; construct CMP-328, not MMP2-treated
T1 construct: Bought; attached to the SAX2 biosensor; also called CD122; IL-2R β; not shown: His-tag and Avi-tag
T1 sequence (looked up): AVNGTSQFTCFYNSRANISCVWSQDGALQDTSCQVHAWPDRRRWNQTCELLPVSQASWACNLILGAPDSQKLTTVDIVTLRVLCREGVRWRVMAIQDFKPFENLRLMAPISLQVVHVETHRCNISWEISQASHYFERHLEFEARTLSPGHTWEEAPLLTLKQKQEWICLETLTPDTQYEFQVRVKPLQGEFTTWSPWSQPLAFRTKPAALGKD
Protocol: (§1) Bilayer interferometry (BLI) assays were used to measure the binding constants between activatable IL-2 polypeptides (and activated versions thereof) to IL-2 receptor subunits or receptor complexes. BLI assays were conducted on an Octet® R8 instrument. Assay plates were 96 well, polypropylene, F-bottom (chimney well), black microplates (Greiner Bio-one, Cat. No: 655209). The biosensors were Octet® SAX2 (Sartorius, Cat. No: 18-5136). The assay buffer was 1X Kinetic Buffer (Sartorius, Cat. no: 18-5136) or Phosphate Buffered Saline (PBS) that contained 0.02% (v: v) Tween 20 (Polysorbate 20) and 0.1% (w/v) bovine serum albumin (BSA). The sensor was regenerated between measurements in 10 mM glycine pH 2.7 buffer.
(§2) Sensor attached receptors were either recombinant human IL-2 receptor beta containing a His-tag and Avi-tag™ (R&D Systems™) or an Avi-tag™ Fc with human IL-2R beta and IL-2R gamma attached (Acrobiosystems Cat. no: ACRB-ILG-H₈₂F3-25UG). Receptors were reconstituted from lyophilized powder to 500 μg/ml in PBS. Analytes were diluted in Kinetic buffer to 300 nM, then serially diluted to lower concentrations.

[2] = biological target: T2, Avi-tag Fc with human IL-2R beta and IL-2R gamma attached (Acrobiosystems ACRB-ILG-H82F3-25UG) (human, UniProt P14784 27-239; P31785 23-262); experiment: BLI (Octet R8), receptor on SAX2 sensor
T2 construct: Bought; attached to the SAX2 biosensor; also called CD122 CD132; IL-2R βγ; not shown: Fc and Avi-tag
T2 sequence (looked up) 1: T1 sequence (looked up)
T2 sequence (looked up) 2: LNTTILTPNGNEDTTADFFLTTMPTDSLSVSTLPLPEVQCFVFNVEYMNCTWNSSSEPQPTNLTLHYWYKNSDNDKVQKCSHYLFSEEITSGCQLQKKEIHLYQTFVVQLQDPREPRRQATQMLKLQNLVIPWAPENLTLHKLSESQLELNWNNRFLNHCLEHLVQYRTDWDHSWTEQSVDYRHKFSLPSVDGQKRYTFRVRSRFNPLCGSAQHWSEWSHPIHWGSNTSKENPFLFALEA
Procedure, shortened: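 Receptor immobilized on SAX2 biosensors; analytes (intact or MMP2-cleaved activatable IL-2 constructs) started at 300 nM and serially diluted in Kinetic buffer or PBS with 0.02% Tween 20 and 0.1% BSA. Binding constants measured by biolayer interferometry; sensors regenerated with 10 mM glycine pH 2.7 between runs.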

[3] = biological target: T1, recombinant human IL-2 receptor beta …; experiment: BLI (Octet R8), receptor on SAX2 sensor; construct CMP-313, not MMP2-treated
Protocol: as §1, §2

[4] = biological target: T2, Avi-tag Fc with human IL-2R beta and …; experiment: as above
Protocol: as §1, §2

Kd [1]: 0.034 nM
koff [2]: 0.00194 s⁻¹
B1: CMP-328 (ligand)
chain: APTSSSTKKTQLQLEHLLLDLQEILNGINNYKNPKLTR[Nle]L[hSer][Yn3]KF[Ygp][Nle]PKKATELKHLQCLEEELKPLEEVL[hSer]LAQSKNFHLRPRDLISNINVIVLELKGSETTF[hSer]CEYADETATIVEFLNRWITFSQSIISTLT
modifications: bridge 9-23; not fully specified (bridges)
notes: Synthetic IL-2 polypeptide, tested intact

Kd [3]: 163 nM
Kd [4]: 3.4 nM
koff [2]: 0.00148 s⁻¹
B2: CMP-313 (ligand)
chain: APTSSSTKKTQLQLEHLLLDLQKILNGINNYKNPKLTR[Nle]L[hSer][Yn3(4)]KF[Ygp(4)][Nle]PKKATELKHLQCLEEELKPLEEVL[hSer]LAQSKNFHLRPRDLISNINVIVLELKGSETTF[hSer]CEYADETATIVEFLNRWITFSQSIISTLT
modifications: not fully specified; ends and bridges not checked; also: Lys23 side chain carries an attached cleavable peptide moiety (structure only in drawing)
notes: as for B1
